B1: HAdV3 fiber knob mutant V239D (nondimerized, trimeric) (domain or fragment, human adenovirus type 3 (HAdV3))
chain: ALKNNTLWTGPKPEANCIIEYGKQNPDSKLTLILVKNGGIVNGYVTLMGASDYVNTLFKNKNVSINVELYFDATGHILPDSSSLKTDLELKYKQTADFSARGFMPSTTAYPFDLPNAGTHNENYIFGQCYYKASDGALFPLEVTVMLNKRLPDSRTSYVMTFLWSLNAGLAPETTQATLITSPFTFSYIREDD

How the values were obtained:
[1] = biological target: JO-4 (affinity-enhanced junction opener; self-dimerizing HAdV3-V239D fiber knob) (human adenovirus type 3 (HAdV3)) (UniProt P04501); test: SPR
crystal structure = biological target: the molecule itself; test: crystal structure

| Molecule | Kd [1] | binding result (crystal structure) |
| --- | --- | --- |
| Recombinant human DSG2 protein (desmoglein 2) (from UniProt Q14126 50-609) (receptor) | 1.4 nM |  |
| B1 |  | binds |

Source: article PMC4445001 (Molecular Therapy. Methods & Clinical Development, 2015)
